Measurements published in patent US20230374071A1, “COMPOSITIONS FOR INDUCING URINARY VOIDING AND DEFECATION” (Dignify Therapeutics, LLC, priority 2020, published 2023).
In brackets after ≈: the same amount, converted by molar mass. Entries after “also recorded” stand apart in the source; their conditions may differ. Starred links: 1 amine or outer side, 2 acyl side, 3 side chain; linkers in the order of their positions; H or OH if unused. Non-standard residues stand in square brackets, D forms with d. Residues, ends and D or L forms follow the SMILES beside them. No end group written: not given here. gc = gamma constrained Gly-(R-gamma-lactam)-Leu moiety, (S)-2-((R)-3-amino)-2-oxopyrrolidin-1-yl)-4-methylpentanoyl, between Val and the C-terminal residue, CC(C)C[C@@H](C(=O)[*:2])N1CC[C@@H](N[*:1])C1=O; Nle = CCCC[C@H](N)C(=O)O; βAla = NCCC(=O)O

T1: human NK2 receptor (hNK2R) (Homo sapiens, UniProt P21452)
T1 construct: expressed in transfected cells; host or cells: CHO (CHO-hNK2)
T1 sequence (P21452 1-398): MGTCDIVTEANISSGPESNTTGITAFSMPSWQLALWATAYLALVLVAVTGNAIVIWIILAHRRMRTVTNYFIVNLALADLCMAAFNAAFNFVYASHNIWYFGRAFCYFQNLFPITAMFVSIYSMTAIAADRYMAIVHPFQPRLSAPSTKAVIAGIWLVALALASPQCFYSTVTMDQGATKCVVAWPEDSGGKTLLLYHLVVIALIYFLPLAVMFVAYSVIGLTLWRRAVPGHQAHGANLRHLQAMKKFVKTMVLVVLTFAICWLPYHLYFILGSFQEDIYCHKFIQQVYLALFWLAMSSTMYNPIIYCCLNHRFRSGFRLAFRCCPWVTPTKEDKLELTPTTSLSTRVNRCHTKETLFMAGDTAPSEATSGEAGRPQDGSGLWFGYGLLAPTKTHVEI

T2: human neurokinin 2 receptor (human, UniProt P21452 1-398)
T2 sequence (looked up): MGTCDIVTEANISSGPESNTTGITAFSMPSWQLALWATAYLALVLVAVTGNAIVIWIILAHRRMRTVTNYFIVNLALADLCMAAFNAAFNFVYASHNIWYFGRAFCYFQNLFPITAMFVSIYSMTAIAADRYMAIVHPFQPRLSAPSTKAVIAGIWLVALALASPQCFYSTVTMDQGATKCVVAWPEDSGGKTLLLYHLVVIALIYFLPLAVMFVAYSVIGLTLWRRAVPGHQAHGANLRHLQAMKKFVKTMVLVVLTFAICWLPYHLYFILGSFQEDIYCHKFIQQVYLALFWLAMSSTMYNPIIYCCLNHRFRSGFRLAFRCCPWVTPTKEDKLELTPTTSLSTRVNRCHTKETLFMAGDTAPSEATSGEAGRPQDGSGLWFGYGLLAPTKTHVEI


Experiments:
[1] = Aqueous solubility of lyophilized peptide analogs (observed dissolution in Dulbecco's phosphate buffered saline and water); type: physicochemical; settings: observed dissolution in both Dulbecco's phosphate buffered saline and water; 5 mg/mL was the maximum tested
Method: Peptide analogs of NKA were purified to ≥95% purity. […] Compounds A, B, H, and J (SEQ ID NO: 1, 2, 8, and 10) were considered to be aqueous insoluble (<0.1 mg/mL). *Aqueous solubilities of the lyophilized peptide analogs were determined based on the observed dissolution in both Dulbecco's phosphate buffered saline and water. gc=Gly-(R-gamma-lactam)-Leu or (S)-2-((R)-3-amino)-2-oxopyrrolidin-1-yl)-4-methylpantanoyl.

[2] = target: T1, human NK2 receptor (hNK2R); test: Intracellular calcium mobilization (Fluo-4 AM, FLIPR) in CHO cells expressing recombinant hNK2R; type: cell-based; settings: for EC50: calcium mobilization, CHO-hNK2 cells, agonist potency, read-out: hNK2R pEC50 (converted)
Method: (§1) Intracellular Calcium Mobilization: The agonist efficacy of compounds A-J at recombinant hNK2R or hNK1Rs expressed in CHO cells was assessed by measuring intracellular calcium mobilization using the calcium-sensitive dye Fluo-4 AM (MOLECULAR PROBES, EUGENE, OR, USA) and a Fluorometric Imaging Plate Reader (FLIPR, MOLECULAR DEVICES, CA, USA). CHO-hNK1 and CHO-hNK2 cells were seeded into black walled clear-bottom 384-well plates) at a density of 10,000 and 15,000 cells per well in 50 μL culture media, respectively, and grown overnight at 37° C. in a humidified CO2-incubator. Cells were washed in washing buffer using a Microplate Washer BIOTEK 384 instrument, leaving 20 μL of buffer per well after the final aspiration. Cells were then incubated at 37° C. with the cytoplasmic Ca^2+ indicator Fluo-4 AM at 2 μM in assay buffer containing 2.5 mM probenecid and 0.02% Pluronic F-127 for 45-60 min (cell loading). Cells were then washed 3 times in washing buffer using a Microplate Washer BIOTEK 384 instrument, leaving 30 μL of buffer in each well after the last wash. Loaded cell plates were transferred to the FLIPR Tetra instrument and calcium responses monitored as described below. A dual read-out FLIPR protocol was used, allowing for characterization of both agonist and antagonist profiles. For quality control, in each compound plate the signal was monitored by evaluating the responses to the reference standards (NKA and Substance P).
(§2) Twelve concentrations of each of the compounds A-J were evaluated for their ability to increase intracellular calcium levels with respect to the agonist reference standard (NKA or Substance P), and the pEC50 value was calculated. […] Concentration response curves of compounds were run in duplicate on two different occasions from the same stock solutions. Test solutions were prepared from 10 mM stock solutions in DMSO and 1 μL of each solution was stamped into V-bottom assay plates containing 49 μL assay buffer. The final concentration of DMSO was 0.5% in each well.
(§3) The results of the intracellular calcium mobilization by in vitro activation of recombinant hNK2Rs or hNK1Rs expressed in CHO cells as described above for the 10 peptide analogs A-J, is shown in Table 3 below. In addition, FIGS. 3A-3C are exemplary graphs showing stimulation of [Ca^2+] response in CHO cells expressing human NK2 or NK1 receptors by Compound A, Compound B, and Compound G, respectively. In FIGS. 3A-3C, data are expressed as % of the maximal response to substance P for NK1 receptors, or NKA for NK2 receptors. Each data point is the mean±SD from duplicate determinations.

[3] = target: T3, human NK1 receptor (hNK1R) (Homo sapiens, UniProt P25103); test: Intracellular calcium mobilization (Fluo-4 AM, FLIPR) in CHO cells expressing recombinant hNK1R; type: cell-based; settings: for EC50: calcium mobilization, CHO-hNK1 cells, agonist potency, read-out: hNK1R pEC50 (converted)
T3 construct: expressed in transfected cells; host or cells: CHO (CHO-hNK1)
Method: as §1, §2, §3

[4] = target: T2, human neurokinin 2 receptor; test: cell-based or functional assay
[5] = target: T4, human neurokinin 1 receptor (human, UniProt P25103 1-407); test: cell-based or functional assay
[6] = target: T2, human neurokinin 2 receptor; test: cell-based or functional assay; remark: listed apart in the source
[7] = target: T4, human neurokinin 1 receptor; test: cell-based or functional assay; remark: listed apart in the source
[8] = tested at concentrations up to 10 μM

T3 sequence (P25103 whole entry): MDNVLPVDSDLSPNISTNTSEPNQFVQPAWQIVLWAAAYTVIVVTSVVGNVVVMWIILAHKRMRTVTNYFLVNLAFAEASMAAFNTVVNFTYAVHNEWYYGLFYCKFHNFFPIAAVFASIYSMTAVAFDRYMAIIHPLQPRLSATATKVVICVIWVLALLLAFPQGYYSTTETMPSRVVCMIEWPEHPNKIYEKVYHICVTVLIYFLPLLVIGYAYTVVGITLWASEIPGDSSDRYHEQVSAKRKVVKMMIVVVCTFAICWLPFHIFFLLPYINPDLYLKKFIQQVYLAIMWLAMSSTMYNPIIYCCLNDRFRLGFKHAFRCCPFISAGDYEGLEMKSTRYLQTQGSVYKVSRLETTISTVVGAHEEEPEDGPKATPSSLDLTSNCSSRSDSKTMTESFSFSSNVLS
T4 sequence (P25103 whole entry): as above

| Molecule | Aqueous solubility [1] [mg/mL] | solubility [1] [µg/mL] | EC50 [2] [nM] | selectivity for activation of hNK2Rs vs hNK1Rs ([2]; from ratios of EC50s) | calcium response at hNK2R [2, 8] | EC50 [3] [nM] | calcium response at hNK1R [3, 8] | hNK2R pEC50 (intracellular calcium mobilization, FLIPR, CHO cells) [4] | hNK1R pEC50 (intracellular calcium mobilization, FLIPR, CHO cells) [5] | maximal calcium response [6] | maximal calcium response [7] | NK2R/NK1R selectivity ratio [4] [fold] |
| --- | --- | --- | --- | --- | --- | --- | --- | --- | --- | --- | --- | --- |
| CCCC[C@H](NC(=O)[C@H](CC(C)C)NC(=O)CCNC(=O)[C@@H](NC(=O)[C@H](Cc1ccccc1)NC(=O)[C@H](CO)NC(=O)[C@@H](N)CC(=O)O)C(C)C)C(N)=O [H, Asp-Ser-Phe-Val-(β-Ala)-Leu-Nle-NH2] (H-DSFV[βAla]L[Nle]-NH2; N-terminus assumed) | <0.1 | < 100 | > 10000 | did not exhibit selectivity for hNK2Rs; also recorded: do not exhibit selectivity for hNK2Rs | did not elicit a significant calcium response; also recorded: do not elicit a significant calcium response | > 10000 | did not elicit a significant calcium response; also recorded: do not elicit a significant calcium response | – | – | – | – | – |
| CCCC[C@H](NC(=O)[C@H](CC(C)C)N1CC[C@@H](NC(=O)[C@@H](NC(=O)[C@H](Cc2ccccc2)NC(=O)[C@H](CCCCN)NC(=O)[C@@H](N)CC(=O)O)C(C)C)C1=O)C(N)=O [Compound D, Asp-Lys-Phe-Val-gc-Nle-NH2] | – | 5000 (≈ 6.13 mM) | 3.63 | – | – | 479 | – | – | – | – | – | – |
| DSFV[βAla]L[Nle]-NH2 (N-terminus assumed; SMILES CCCC[C@H](NC(=O)[C@H](CC(C)C)NC(=O)CCNC(=O)[C@@H](NC(=O)[C@H](Cc1ccccc1)NC(=O)[C@H](CO)NC(=O)[C@@H](N)CC(=O)O)C(C)C)C(N)=O) [Compound H (Asp-Ser-Phe-Val-(β-Ala)-Leu-Nle-NH2)] | – | – | – | – | – | – | – | < 5 | < 5 | – | – | – |
| KDSFV[βAla]L[Nle]-NH2 (N-terminus assumed; SMILES CCCC[C@H](NC(=O)[C@H](CC(C)C)NC(=O)CCNC(=O)[C@@H](NC(=O)[C@H](Cc1ccccc1)NC(=O)[C@H](CO)NC(=O)[C@H](CC(=O)O)NC(=O)[C@@H](N)CCCCN)C(C)C)C(N)=O) [Compound J (Lys-Asp-Ser-Phe-Val-(β-Ala)-Leu-Nle-NH2)] | – | – | – | – | – | – | – | 7.88 | 6.52 | ≥ 85 % maximal response compared to Neurokinin A | ≥ 85 % maximal response compared to Substance P | 23 |
| KDSFV[βAla]LM-NH2 (N-terminus assumed; SMILES CSCC[C@H](NC(=O)[C@H](CC(C)C)NC(=O)CCNC(=O)[C@@H](NC(=O)[C@H](Cc1ccccc1)NC(=O)[C@H](CO)NC(=O)[C@H](CC(=O)O)NC(=O)[C@@H](N)CCCCN)C(C)C)C(N)=O) [Compound I (Lys-Asp-Ser-Phe-Val-(β-Ala)-Leu-Met-NH2)] | – | – | – | – | – | – | – | < 5 | < 5 | – | – | – |
| XDSFVM (gc = Gly-(R-gamma-lactam)-Leu, (S)-2-((R)-3-amino)-2-oxopyrrolidin-1-yl)-4-methylpantanoyl moiety, between Val and Met; C-terminal amide (Met-NH2)) [Compound A (Asp-Ser-Phe-Val-gc-Met-NH2)] | – | – | – | – | – | – | – | 9.17 | 6.31 | ≥ 85 % maximal response compared to Neurokinin A | ≥ 85 % maximal response compared to Substance P | 724 |
| DKFV[gc][Nle]-NH2 (N-terminus assumed; SMILES CCCC[C@H](NC(=O)[C@H](CC(C)C)N1CC[C@@H](NC(=O)[C@@H](NC(=O)[C@H](Cc2ccccc2)NC(=O)[C@H](CCCCN)NC(=O)[C@@H](N)CC(=O)O)C(C)C)C1=O)C(N)=O) [Compound D (Asp-Lys-Phe-Val-gc-Nle-NH2)] | – | – | – | – | – | – | – | 8.44 | 6.32 | ≥ 85 % maximal response compared to Neurokinin A | ≥ 85 % maximal response compared to Substance P | 132 |
| DRFV[gc][Nle]-NH2 (N-terminus assumed; SMILES CCCC[C@H](NC(=O)[C@H](CC(C)C)N1CC[C@@H](NC(=O)[C@@H](NC(=O)[C@H](Cc2ccccc2)NC(=O)[C@H](CCCNC(=N)N)NC(=O)[C@@H](N)CC(=O)O)C(C)C)C1=O)C(N)=O) [Compound F (Asp-Arg-Phe-Val-gc-Nle-NH2)] | – | – | – | – | – | – | – | 8.6 | 6.63 | ≥ 85 % maximal response compared to Neurokinin A | ≥ 85 % maximal response compared to Substance P | 93 |
| KDSFV[gc][Nle]-NH2 (N-terminus assumed; SMILES CCCC[C@H](NC(=O)[C@H](CC(C)C)N1CC[C@@H](NC(=O)[C@@H](NC(=O)[C@H](Cc2ccccc2)NC(=O)[C@H](CO)NC(=O)[C@H](CC(=O)O)NC(=O)[C@@H](N)CCCCN)C(C)C)C1=O)C(N)=O) [Compound G (Lys-Asp-Ser-Phe-Val-gc-Nle-NH2)] | – | – | – | – | – | – | – | 8.11 | 5.79 | ≥ 85 % maximal response compared to Neurokinin A | ≥ 73 % maximal response compared to Substance P | 206 |
| DRFV[gc]M-NH2 (N-terminus assumed; SMILES CSCC[C@H](NC(=O)[C@H](CC(C)C)N1CC[C@@H](NC(=O)[C@@H](NC(=O)[C@H](Cc2ccccc2)NC(=O)[C@H](CCCNC(=N)N)NC(=O)[C@@H](N)CC(=O)O)C(C)C)C1=O)C(N)=O) [Compound E (Asp-Arg-Phe-Val-gc-Met-NH2)] | – | – | – | – | – | – | – | 9.71 | 7.76 | ≥ 85 % maximal response compared to Neurokinin A | ≥ 85 % maximal response compared to Substance P | 90 |
